The values that follow come from US20100138941A1 (IMAGENE, published 2010).

The experiment addresses T1, AIMP1 protein (SEQ ID NO: 1) consisting of 312 amino acids (Homo sapiens (Human), UniProt Q12904 1-312).
T1 construct: also called purified AIMP1 protein; AIMP1 protein antigen
T1 sequence: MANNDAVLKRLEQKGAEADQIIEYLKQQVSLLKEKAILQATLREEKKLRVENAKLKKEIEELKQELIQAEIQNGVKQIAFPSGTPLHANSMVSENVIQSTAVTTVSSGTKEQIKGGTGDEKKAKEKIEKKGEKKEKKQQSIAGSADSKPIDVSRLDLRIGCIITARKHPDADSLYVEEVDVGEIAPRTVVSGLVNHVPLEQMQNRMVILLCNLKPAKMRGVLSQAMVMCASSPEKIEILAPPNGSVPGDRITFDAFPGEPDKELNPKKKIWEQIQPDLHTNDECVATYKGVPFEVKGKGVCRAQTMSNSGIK
Description: purified GST-gp96 fragments incubated with AIMP1, Western blot with anti-AIMP1 antibody. The procedure:
The purified GST-gp96 fragments were cultured with AIMP1 and analyzed by Western blot using an anti-AIMP1 antibody, and the analysis results are shown in FIG. 16.
(In general: In western blotting, separated proteins are transferred to a membrane and probed.)

B1: GST-gp96-(699-799) (other)
chain: RRIKEDEDDKTVLDLAVVLFETATLRSGYLLPDTKAYGDRIERMLRLSLNIDPDAKVEEEPEEEPEETAEDTTEDTEQDEDEEMDVGTDEEEETAKESTAE
notes: GST-tag fusion purified on GSH agarose; also called domain involved in oligomerization; not shown: GST tag encoded by the pGEX4T3 vector (Amersham Biosciences)
Take B1: the binding result is on record as “binds”.
